Source: paper PMC6426840

Biological target: recombinant human matrix metalloproteinase-2 (rh-proMMP2 activated with APMA) (human) (UniProt P08253)
UniProt P08253, sequence (P08253 30-660): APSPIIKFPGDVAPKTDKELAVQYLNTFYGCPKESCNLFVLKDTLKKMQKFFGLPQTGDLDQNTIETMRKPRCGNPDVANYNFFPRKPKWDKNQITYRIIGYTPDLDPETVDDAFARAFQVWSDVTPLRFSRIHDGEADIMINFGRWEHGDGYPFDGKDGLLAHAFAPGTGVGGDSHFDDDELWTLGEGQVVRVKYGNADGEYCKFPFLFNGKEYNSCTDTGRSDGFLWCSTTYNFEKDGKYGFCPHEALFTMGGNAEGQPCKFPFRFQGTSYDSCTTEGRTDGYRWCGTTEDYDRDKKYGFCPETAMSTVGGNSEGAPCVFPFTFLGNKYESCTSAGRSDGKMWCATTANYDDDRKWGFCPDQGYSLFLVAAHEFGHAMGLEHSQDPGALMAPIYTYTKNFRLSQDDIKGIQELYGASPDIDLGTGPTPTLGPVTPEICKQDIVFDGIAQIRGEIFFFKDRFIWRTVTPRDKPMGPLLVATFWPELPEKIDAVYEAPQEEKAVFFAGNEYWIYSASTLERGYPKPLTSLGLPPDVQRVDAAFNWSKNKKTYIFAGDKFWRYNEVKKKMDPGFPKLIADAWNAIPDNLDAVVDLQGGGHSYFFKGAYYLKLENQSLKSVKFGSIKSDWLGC

B1: recombinant human tissue inhibitor of metalloproteinases 3 (natural protein)
chain: CTCSPSHPQDAFCNSDIVIRAKVVGKKLVKEGPFGTLVYTIKQMKMYRGFTKMPHVQYIHTEASESLCGLKLEVNKYQYLLTGRVYDGKMYTGLCNFVERWDQLTLSQRKGLNYRYHLGCNCKIKSCYYLPCFVTSKNECLWTDMLSNFGYPGYQSKHYACIRQKGGYCSWYRGWAPPDKSIINATDP
MMP2 enzyme activity left (fluorogenic peptide MCA-Pro-Leu-Ala-Nva-Dpa-Ala-Arg-NH2, endpoint after 5 h) with 100 ng/mL rhMMP2 and 40 ng/mL rhTIMP3, molecular ratio about 1:1, without GAG: 15%
TIMP3-induced inhibition of MMP2 enzyme activity when hyaluronan (HA, 200 µg/mL) is added to MMP2 and TIMP3 pre-incubated for 30 min at 25 °C; change against the control without GAG: 5%
